The series addresses Glucocorticoid receptor (Hu-GR), unliganded (human, UniProt P04150 1-777). Briefly: EMSA; no glucocorticoid; GR 40 ng (0.5 pmol), probe 0.5 ng (0.05 pmol), 1 ug poly(dI-dC), 25 ul; 6% non-denaturing PAGE; buffer, salt, pH and temperature not stated. Particulars: protein: recombinant; chain copies: 2; label: 32P 5'-end; blunt.

Chain of Glucocorticoid receptor (Hu-GR), unliganded (P04150 whole entry): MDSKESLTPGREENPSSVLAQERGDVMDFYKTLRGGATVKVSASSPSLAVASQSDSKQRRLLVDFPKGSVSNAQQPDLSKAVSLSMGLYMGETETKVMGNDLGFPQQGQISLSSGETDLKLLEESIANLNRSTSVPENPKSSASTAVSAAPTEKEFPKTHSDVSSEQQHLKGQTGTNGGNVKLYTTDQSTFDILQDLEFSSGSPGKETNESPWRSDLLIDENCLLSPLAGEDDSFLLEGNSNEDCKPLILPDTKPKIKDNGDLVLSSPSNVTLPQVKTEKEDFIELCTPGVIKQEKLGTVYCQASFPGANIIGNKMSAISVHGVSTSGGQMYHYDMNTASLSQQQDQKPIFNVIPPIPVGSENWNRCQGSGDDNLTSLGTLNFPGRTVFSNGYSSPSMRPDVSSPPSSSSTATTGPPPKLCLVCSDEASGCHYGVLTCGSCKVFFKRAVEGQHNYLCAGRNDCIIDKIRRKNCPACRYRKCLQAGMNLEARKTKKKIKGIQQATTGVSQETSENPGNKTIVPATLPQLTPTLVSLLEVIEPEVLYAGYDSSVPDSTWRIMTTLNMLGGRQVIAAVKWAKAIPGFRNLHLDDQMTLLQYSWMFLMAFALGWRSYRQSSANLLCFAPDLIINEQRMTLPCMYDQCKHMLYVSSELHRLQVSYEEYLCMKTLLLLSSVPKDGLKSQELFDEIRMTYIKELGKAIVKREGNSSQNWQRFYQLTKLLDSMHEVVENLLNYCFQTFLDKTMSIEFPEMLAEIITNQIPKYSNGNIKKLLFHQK

B1: Wt-GRE1 (dsDNA)
DNA 1: CAAACTAGCGCTGTTCTTTACTGAATGCCC
DNA 2: GGGCATTCAGTAAAGAACAGCGCTAGTTTG
As to B1, the binding result is “binds”.

B2: Mut-GRE1 (dsDNA)
DNA 1: CAAACTAGCGCCAGGTCTTTACTGAATGCCC
DNA 2: GGGCATTCAGTAAAGACCTGGCGCTAGTTTG
For B2, the binding result is given as “no binding”.

B3: Mut-GRE2 (dsDNA)
DNA 1: GGTGGAACCCAAGAGCACCCTTTGGTCCTG
DNA 2: CAGGACCAAAGGGTGCTCTTGGGTTCCACC
Turning to B3, the binding result is “no binding”.

B4: Wt-GRE2 (dsDNA)
DNA 1: GGTGGAACCCAATGTTCTCCTTTGGTCCTG
DNA 2: CAGGACCAAAGGAGAACATTGGGTTCCACC
As for B4, the binding result is “binds”.

Values taken from publication PMC5461336, “Non-canonical Glucocorticoid Receptor Transactivation of gilz by Alcohol Suppresses Cell Inflammatory Response”.
